In publication PMC7718874 (2020):
Where a chain is given by its changes, count along the chain named. Values belong to the binder of their own block, whether it stands above or below them. Where no end group is shown, it is not given here. Me3 = trimethyl-lysine; Me2 = dimethyl-lysine

T1: AIPP3-BAH domain W170A (Arabidopsis, UniProt Q8RXT5 112-279, W170A)
T1 sequence: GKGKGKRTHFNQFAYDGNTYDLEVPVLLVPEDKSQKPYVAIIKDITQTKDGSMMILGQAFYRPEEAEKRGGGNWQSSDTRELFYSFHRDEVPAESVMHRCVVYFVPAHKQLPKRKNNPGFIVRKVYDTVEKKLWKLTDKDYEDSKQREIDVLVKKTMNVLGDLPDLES

T2: AIPP3-BAH domain H198A (Arabidopsis, UniProt Q8RXT5 112-279, H198A)
T2 sequence: T1 sequence with A59W, H87A

T3: AIPP3-BAH domain Y149A (Arabidopsis, UniProt Q8RXT5 112-279, Y149A)
T3 sequence: T1 sequence with Y38A, A59W

T4: AIPP3-BAH domain D200A (Arabidopsis, UniProt Q8RXT5 112-279, D200A)
T4 sequence: T1 sequence with A59W, D89A

T5: H3K4me1 (Arabidopsis thaliana)
T5 chain: ARTK(Me)QTARKSTGGKA

T6: H3K4me2 (Arabidopsis thaliana)
T6 chain: ARTK(Me2)QTARKSTGGKA

T7: H3K27me1 (Arabidopsis thaliana, also: biotinylated in pull-down)
T7 chain: LATKAARK(Me)SAPATGGVKK

T8: H3K27me2 (Arabidopsis thaliana, also: biotinylated in pull-down)
T8 chain: LATKAARK(Me2)SAPATGGVKK

B1: unmodified H3K4 peptide (peptide)
chain: ARTKQTARKSTGGKA
modifications: zinc-bound PHD finger; limits from the UniProt ZN_FING feature, construct limits not printed unmodified Lys4; H3 1-15 assumed by convention
B2: PAIPP2-PHD finger (domain or fragment)
chain: VKVCDICGDAGREDLLAICSGCSDGAEHTYCMREMLDEVPEGDWLCEECAEE
B3: AIPP3-BAH domain (residues 112-279) (domain or fragment)
chain: T1 sequence with A59W

What was measured:
Experiment in all cases: ITC
[1] = molecular target: B2
[2] = molecular target: T1, AIPP3-BAH domain W170A
[3] = molecular target: T2, AIPP3-BAH domain H198A
[4] = molecular target: B3
[5] = molecular target: T3, AIPP3-BAH domain Y149A
[6] = molecular target: T4, AIPP3-BAH domain D200A
[7] = molecular target: T5, H3K4me1
[8] = molecular target: T6, H3K4me2
[9] = molecular target: T7, H3K27me1
[10] = molecular target: T8, H3K27me2

Binder: B1
Kd [1]: 18.6 µM

Kd [2]: 28.5 µM | Kd [3]: 17.4 µM | Kd [4]: 7.4 µM | Kd [5]: 19.8 µM | Kd [6]: 34.1 µM
Binder: LATKAARK(Me3)SAPATGGVKK [H3K27me3 peptide]

Kd [4]: 24.3 µM
Binder: ARTK(Me3)QTARKSTGGKA [H3K4me3 peptide]

Binder: B2
Kd [7]: 22.1 µM | Kd [8]: 30 µM

Binder: B3
Kd [9]: 24.2 µM | Kd [10]: 17.1 µM

Kd [4]: 17.3 µM
Binder: ARTKQTARKSTGGKA (dimethyl-lysine at K9) [H3K9me2 peptide]
